In test [1] the target is T1, Recombinant Cyno CD200R, His-tagged (Creative Biomart CD200R1-3483C) (cynomolgus monkey).
T1 construct: Bought; also called cynomolgus CD200R1; cynomolgus CD200R
In words: SPR, cyno CD200R1 flowed over immobilized CD200-Fc, 25 C, 1:1 fit, mean of 2 experiments with standard deviation. On the procedure:
For human CD200 constructs: anti-human Fc (GE Healthcare) was covalently immobilized on a BIAcore CM5 sensor chip (Cytiva, BR100530) by amine coupling using a Cytiva kit (BR100839) following the manufacturer's instructions, targeting immobilization of 8,000-11,000 RU. CD200-Fc proteins were diluted to 0.5 μg/mL to 4 μg/mL in running Buffer (1×HBS-EP+pH7.4 (Cytiva BR100669), HEPES Buffered Saline pH 7.4 containing 3 mM EDTA and 0.05% v/v Surfactant P20) and flowed for 25 to 100 seconds at 10 μL/min over the immobilized Anti-Human IgG Fc, with a stabilization time of 60 seconds. Between 35 and 250 RUs of CD200-Fc were captured, with higher RUs used for cynomolgus CD200R binding experiments. […] Analysis temperature was 25° C. This was followed by regeneration of the surface with 30-90 second pulse of 3M MgCl₂ flowed at […] flow rate followed by stabilization of the surface with 60 second flow of running buffer.
Curves obtained were fitted to 1:1 Langmuir binding model by setting Rmax and RI as local parameters. Rate equations using standard parameters (e.g. ligand concentration, time) were used for iterative curve fitting. […] Means of 2 experiments carried out on the same day are shown with standard deviation. Residue numbering for CD200 proteins refers to the pre-protein, containing a signal peptide which is cleaved during insertion into the endoplasmic reticulum.
(Surface plasmon resonance follows binding to a sensor surface in real time, without labels.)

Test [2] concerns the target T2, Human CD200R, full length, on transduced U937 cells (U937-CD200R) (human, UniProt Q8TD46 25-348).
T2 sequence (looked up): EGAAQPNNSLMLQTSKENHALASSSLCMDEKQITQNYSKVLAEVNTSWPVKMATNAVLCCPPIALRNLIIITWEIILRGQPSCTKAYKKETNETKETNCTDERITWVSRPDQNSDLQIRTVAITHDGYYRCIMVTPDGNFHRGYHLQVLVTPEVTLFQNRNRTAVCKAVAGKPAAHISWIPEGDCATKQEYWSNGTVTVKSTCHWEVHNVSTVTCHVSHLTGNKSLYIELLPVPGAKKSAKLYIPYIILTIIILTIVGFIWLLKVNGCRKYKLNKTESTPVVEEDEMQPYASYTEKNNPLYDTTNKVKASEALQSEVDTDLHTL
In words: cell-based or functional assay.

In test [3] the target is T2, Human CD200R, full length, on …. In words: Flow cytometry on U937-CD200R cells, 4 hours incubation at 37 C, fluorescent anti-human secondary antibody. On the procedure: Construct treatment (50 μL) was performed starting from 10 μg/mL with 3-fold dilutions up to 10 concentrations with FACS buffer and incubated for 1-hour, 4-hours and 24-hours at 37° C. At the end of each time point, cells were collected and washed. 10 μg/mL of anti-human secondary antibody was added and incubated for 30 minutes at 4° C. Cells were washed post incubation and stained to check viability (1 μL dye per million cells per mL 1×PBS) for 20 minutes at 4° C. Cells were washed and fixed with Fixation buffer (100 μL per test) at 4° C. for 20 minutes. Post incubation, cells were washed and the pellet was re-suspended in FACS buffer (100 μL per test) for data acquisition on flow cytometer.

Test [4] addresses T3, Mouse CD200R protein (Creative Biomart CD200R1-3280M) (mouse, UniProt Q9ES57 26-238).
T3 construct: also called Murine CD200R1; murine CD200R
T3 sequence (looked up): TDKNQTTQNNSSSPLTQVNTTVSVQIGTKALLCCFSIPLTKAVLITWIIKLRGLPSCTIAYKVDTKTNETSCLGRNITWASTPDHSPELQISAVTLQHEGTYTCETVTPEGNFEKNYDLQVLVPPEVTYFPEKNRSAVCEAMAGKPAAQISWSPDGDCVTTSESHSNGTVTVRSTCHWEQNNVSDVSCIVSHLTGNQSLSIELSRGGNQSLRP
Description: SPR (BIAcore).

B1: DS-118 (mutated human CD200-Fc fusion protein, K130Y, I131Y, IgG4 S228P Fc) (Fc fusion)
chain: QVQVVTQDEREQLYTPASLKCSLQNAQEALIVTWQKKKAVSPENMVTFSENHGVVIQPAYKDKINITQLGLQNSTITFWNITLEDEGCYMCLFNTFGFGYYSGTACLTVYVQPIVSLHYKFSEDHLNITCSATARPAPMVFWKVPRSGIENSTVTLSHPNGTTSVTSILHIKDPKNQVGKEVICQVLHLGTVTDFKQTVNKGPPCPPCPAPEFLGGPSVFLFPPKPKDTLMISRTPEVTCVVVDVSQEDPEVQFNWYVDGVEVHNAKTKPREEQFNSTYRVVSVLTVLHQDWLNGKEYKCKVSNKGLPSSIEKTISKAKGQPREPQVYTLPPSQEEMTKNQVSLTCLVKGFYPSDIAVEWESNGQPENNYKTTPPVLDSDGSFFLYSRLTVDKSRWQEGNVFSCSVMHEALHNHYTQKSLSLSLGK
notes: also called mutated CD200-Fc; mutant CD200-Fc
Usually Kd stands for the free concentration of one partner at which half of the binding sites on the other are occupied at equilibrium, for simple one-to-one binding. By EC50 (read off the curve) is commonly meant the midpoint of the concentration-response curve. B1: the Kd in test [1] amounted to 206 nM. Further, the “inhibition of LPS stimulated IL-6 release from U937-CD200R cells, IC50” value in test [2] was 0.01 µg/mL. Also, the “EC50 (read off the curve)” value in test [3] was around 0.9 µg/mL. In test [4], the binding result is on record as “no binding”.

Source of the values: US20260116951A1 (DUCENTIS BIOTHERAPEUTICS, published 2026).
